Measured values taken from patent US7459439B2, “Granulysin peptides and methods of use thereof” (The Regents of the University of California, priority 2003, dated 2008).

B1: granulysin: 9 kDa arginine-rich protein, late T cell activation marker, member of saposin-like proteins (protein)
chain: GRDYRTCLTIVQKLKKMVDKPTQRSVSNAATRVCRTGRSRWRDVCRNFMRRYQSRVIQGLVAGETAQQICEDLR
modifications: H. sapiens

Legend:
[1] = system: IL-12 production by monocytes; test: Inhibition of IL-12 production by monocytes; assay type: cell-based; settings: FIG. 4a
[2] = system: TNF-α production by monocytes; test: Inhibition of TNF-α production by monocytes; assay type: cell-based; settings: FIG. 4b
Propionibacterium acnes = test: Killing of / antimicrobial activity against P. acnes; settings: FIG. 1-3
Source text: The susceptibility of a particular microbe or virus to killing or inhibition by granulysins may be determined by in vitro testing, as detailed in the experimental section. Typically a culture of the microbe is combined with granulysins at varying concentrations for a period of time sufficient to allow the protein to act, usually ranging from about one hour to one day. The viable microbes are then counted, and the level of killing determined.

[3] = system: bacteria, parasites and fungi; test: Range of antimicrobial activity of granulysin; assay type: cell-based; settings: experiments performed in applicant's laboratory
Source text: Granulysin is a 9 kDa basic (arginine-rich) protein and is a member of a larger group of proteins, referred to as saposin-like proteins (sphingolipid activator protein like protein=SAPLIP). This family has been highly conserved for almost a billion years, from amoebas to humans. […] This family includes NK-lysin, isolated from pig intestines, and amoebapores, used by amoebas to kill bacterial prey. […] We have synthesized a shorter granulysin peptide 20 amino acid in length and tested for antimicrobial activity. Further modification of this peptide was done by substituting a more hydrophobic amino acid residue, tryptophan at position 44, and tested for antimicrobial activity.

bacterial membranes = settings: Ernst et al. (2000); cited from earlier work
M. tuberculosis = settings: cited from earlier work

Row | Molecule | inhibition of IL-12 production by monocytes [1] | inhibition of TNF-α production by monocytes [2] | killing of P. acnes / antimicrobial activity against P. acnes (Propionibacterium acnes) | range of antimicrobial activity [3] | alteration of bacterial membranes (bacterial membranes) | effect on M. tuberculosis by electron microscopy (M. tuberculosis)
1 | granulysin peptide #31-50(W44): Modified 20 amino acid granulysin peptide 31-50 with tryptophan substituted at position 44; probably SEQ ID NO:3 TRVSRTGRSRWRDWSRNFMR | able to inhibit IL-12 | able to inhibit |  |  |  | 
2 | granulysin peptide #31-50: Synthetic peptide of residues 31-50 of human granulysin, SEQ ID NO:2 (TRVCRTGRSRWRDVCRNFMR) (TRVCRTGRSRWRDVCRNFMR; H. sapiens) |  |  | effective at killing P. acnes |  |  | 
3 | B1 |  |  | effective at killing Propionibacterium acnes | wide range of antimicrobial activity against bacteria, parasites and fungi | increasing their permeability, inducing lesions on the surface of bacteria and separation of the cell wall and membranes from the cytoplasm | trigger fluid accumulation in the periplasm of M. tuberculosis
